Test results taken from publication PMC13385800 (2026).
Values belong to the substance of their own block, whether it stands above or below them.

Key:
Assay in all cases: co-immunoprecipitation, mass spectrometry
[1] = molecular target: endogenous SETD5 of Flp-In T-REx 293 and HEK293T cells [human (endogenous in Flp-In T-REx 293 and HEK293T)]; settings: n = 3 independent transfections per mutant, read off a plot
[2] = molecular target: NCOR1 (endogenous, HEK293T) [Homo sapiens (Human).]; settings: HEK293T cells; n = 3 independent transfections per mutant; read off a plot
[3] = molecular target: TBL1X (endogenous, HEK293T); settings: HEK293T cells; n = 3 independent transfections per mutant; read off a plot
[4] = molecular target: HDAC3 (endogenous, HEK293T); settings: HEK293T cells; n = 3 independent transfections per mutant; read off a plot
[5] = molecular target: GPS2 (endogenous, HEK293T); settings: HEK293T cells; n = 3 independent transfections per mutant; read off a plot

- screen value [1]: 4 log2
Substance: EGFP-ANKRD11 full length (FL), wild type mutant R2512Q [not stated] / endogenous SETD5 of Flp-In T-REx 293 and HEK293T cells [human (endogenous in Flp-In T-REx 293 and HEK293T)] chain 1 R2512Q

- screen value [2]: 7.4 log2
Substance: EGFP-ANKRD11 full length (FL), wild type mutant R2523W [not stated] / NCOR1 (endogenous, HEK293T) [Homo sapiens (Human).] chain 1 R2523W

- screen value [1]: 2.7 log2
Substance: EGFP-ANKRD11 full length (FL), wild type mutant E2522K [not stated] / endogenous SETD5 of Flp-In T-REx 293 and HEK293T cells [human (endogenous in Flp-In T-REx 293 and HEK293T)] chain 1 E2522K

- screen value [2]: 2.9 log2
Substance: EGFP-ANKRD11 full length (FL), wild type mutant E2522K [not stated] / NCOR1 (endogenous, HEK293T) [Homo sapiens (Human).] chain 1 E2522K

- other: log2 fold change (WT/mutant) [3]: 7.2 log2
- other: log2 fold change (WT/mutant) [4]: 7 log2
- other: log2 fold change (WT/mutant) [5]: 3.4 log2
Substance: EGFP-ANKRD11 full length (FL), wild type (from UniProt Q6UB99) L2605R

- screen value [2]: 4.2 log2
Substance: EGFP-ANKRD11 full length (FL), wild type mutant R2512Q [not stated] / NCOR1 (endogenous, HEK293T) [Homo sapiens (Human).] chain 1 R2512Q

- screen value [1]: 5.6 log2
Substance: EGFP-ANKRD11 full length (FL), wild type mutant R2523W [not stated] / endogenous SETD5 of Flp-In T-REx 293 and HEK293T cells [human (endogenous in Flp-In T-REx 293 and HEK293T)] chain 1 R2523W

- screen value [2]: 7.9 log2
Substance: EGFP-ANKRD11 full length (FL), wild type mutant S2475P [not stated] / NCOR1 (endogenous, HEK293T) [Homo sapiens (Human).] chain 1 S2475P

- other: log2 fold change (WT/mutant) [3]: 2.3 log2
- other: log2 fold change (WT/mutant) [4]: 2.9 log2
- other: log2 fold change (WT/mutant) [5]: 2.8 log2
Substance: EGFP-ANKRD11 full length (FL), wild type (from UniProt Q6UB99) E2522K

- other: log2 fold change (WT/mutant) [4]: 5.9 log2
- other: log2 fold change (WT/mutant) [5]: 2.8 log2
Substance: EGFP-ANKRD11 full length (FL), wild type (from UniProt Q6UB99) R2523W

- screen value [2]: 7.9 log2
Substance: EGFP-ANKRD11 full length (FL), wild type mutant L2605R [not stated] / NCOR1 (endogenous, HEK293T) [Homo sapiens (Human).] chain 1 L2605R

- screen value [1]: 4.6 log2
Substance: EGFP-ANKRD11 full length (FL), wild type mutant S2475P [not stated] / endogenous SETD5 of Flp-In T-REx 293 and HEK293T cells [human (endogenous in Flp-In T-REx 293 and HEK293T)] chain 1 S2475P

- screen value [1]: 4.6 log2
Substance: EGFP-ANKRD11 full length (FL), wild type mutant L2605R [not stated] / endogenous SETD5 of Flp-In T-REx 293 and HEK293T cells [human (endogenous in Flp-In T-REx 293 and HEK293T)] chain 1 L2605R

- other: log2 fold change (WT/mutant) [3]: 7.6 log2
- other: log2 fold change (WT/mutant) [4]: 7 log2
- other: log2 fold change (WT/mutant) [5]: 3.4 log2
Substance: EGFP-ANKRD11 full length (FL), wild type (from UniProt Q6UB99) S2475P
